Legend:
[1] = tested on: ApsR-P (phosphorylated with acetyl-phosphate) (Lacticaseibacillus paracasei BL23); experiment: BLI; details: BLI (BLITz, streptavidin sensors, DNA immobilized): 50 mM Tris-HCl pH 7.4, 150 mM NaCl, 0.1% Tween 20; protein preincubated 30 min with 50 mM phosphodonor and …
[2] = tested on: PsdR-P (phosphorylated with ammonium phosphoramidate) (Lacticaseibacillus paracasei BL23); experiment: BLI; details: BLI (BLITz, streptavidin sensors, DNA immobilized): 50 mM Tris-HCl pH 7.4, 150 mM NaCl, 0.1% Tween 20; protein preincubated 30 min with 50 mM phosphodonor and …

GTAAGCTACCTTACCAGCTTGTAAGCAACTACGAATCACTGTAAGTAGGCATGGGGCATCATCCCCGCTAAGCTAATAAATGAAAGGGGACGATCACATG (double strand) [PpsdA]
Kd [1]: 108000 nM
Kd [2]: 116 nM

CAATCATCTCGCAAACTTACATCACCTTACAAAAAGGTCAGAAAGGGTGCGAGGGGCTTGTAGATTTCCTATAATGAATAGGAATATAGACACGGAGGAC (double strand) [PmprF]
Kd [1]: 26600 nM
Kd [2]: 94.8 nM

TCACGCTTCTCATATTACGAAACTGTTAGCTCATTGTTACGCAATTCGTTGGCGTCATTTTTTCTGAAAACCTATAATGAATGTGTAAATAAAAACGTGG (double strand) [Pdlt]
Kd [1]: 7470 nM
Kd [2]: 100 nM

GGTAAAGAAAGACTAAAGCAGCTTACAAAGCCGTAAGTTACAAACAACCATCCGTTAGGCCATTATCAGGAAAAAGGCAGCCTAACCCGCTATCATAAAG (double strand) [PderA]
Kd [1]: 4740 nM
Kd [2]: 172 nM

From article PMC10858260
